Measurements taken from patent publication US20250019450A1 (DIAGONAL THERAPEUTICS, published 2025).

T1: human IL-12Rβ2, Acro (BLI analyte) (human, UniProt Q99665 24-622, limits assumed)
T1 sequence (looked up): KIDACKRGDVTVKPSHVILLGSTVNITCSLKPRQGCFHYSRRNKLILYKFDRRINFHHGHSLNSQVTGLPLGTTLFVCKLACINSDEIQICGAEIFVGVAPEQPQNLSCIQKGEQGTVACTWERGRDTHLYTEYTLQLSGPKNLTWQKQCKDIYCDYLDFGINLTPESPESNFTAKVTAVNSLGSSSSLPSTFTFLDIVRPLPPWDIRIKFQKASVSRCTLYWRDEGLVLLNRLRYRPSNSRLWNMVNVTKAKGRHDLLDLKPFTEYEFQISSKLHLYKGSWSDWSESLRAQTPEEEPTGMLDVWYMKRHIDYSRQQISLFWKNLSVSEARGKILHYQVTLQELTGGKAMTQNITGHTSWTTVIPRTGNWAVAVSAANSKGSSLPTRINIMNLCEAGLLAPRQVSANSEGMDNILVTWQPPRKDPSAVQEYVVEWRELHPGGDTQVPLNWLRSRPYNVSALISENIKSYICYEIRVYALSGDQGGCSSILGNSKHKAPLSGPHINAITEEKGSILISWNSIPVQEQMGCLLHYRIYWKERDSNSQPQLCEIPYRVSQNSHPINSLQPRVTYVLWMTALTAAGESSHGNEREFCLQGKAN

T2: human IL-12Rβ2-huFc-his (R&D system), biotinylated (human, UniProt Q99665 24-622, limits assumed, biotinylated)
T2 construct: bought; captured on Neutravidin in the ELISA; also called Bio-huIL-12Rβ2-huFc-His
T2 sequence (looked up): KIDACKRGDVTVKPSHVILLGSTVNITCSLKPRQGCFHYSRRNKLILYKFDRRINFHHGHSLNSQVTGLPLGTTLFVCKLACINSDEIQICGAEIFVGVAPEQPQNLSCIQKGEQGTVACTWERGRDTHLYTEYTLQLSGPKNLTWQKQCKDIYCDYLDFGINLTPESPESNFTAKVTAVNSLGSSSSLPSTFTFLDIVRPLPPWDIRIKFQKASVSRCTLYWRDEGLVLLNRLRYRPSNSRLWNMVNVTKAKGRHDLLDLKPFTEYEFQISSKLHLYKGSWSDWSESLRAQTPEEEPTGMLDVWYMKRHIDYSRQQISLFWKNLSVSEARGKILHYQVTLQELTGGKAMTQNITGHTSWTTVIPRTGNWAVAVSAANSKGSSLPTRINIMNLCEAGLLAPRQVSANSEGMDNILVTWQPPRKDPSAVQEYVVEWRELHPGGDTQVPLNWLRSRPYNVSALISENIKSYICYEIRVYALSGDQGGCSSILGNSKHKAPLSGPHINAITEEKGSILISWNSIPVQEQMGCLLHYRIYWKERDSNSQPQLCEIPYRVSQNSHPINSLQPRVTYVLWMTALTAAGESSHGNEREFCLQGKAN

T3: cyno IL-12RB2 with C-terminal HA tag, transiently expressed on HEK-293T cells (cyno, UniProt A0A2K5VNI7 24-860)
T3 construct: whole, on cells; also called cyno IL-12Rβ2
T3 sequence: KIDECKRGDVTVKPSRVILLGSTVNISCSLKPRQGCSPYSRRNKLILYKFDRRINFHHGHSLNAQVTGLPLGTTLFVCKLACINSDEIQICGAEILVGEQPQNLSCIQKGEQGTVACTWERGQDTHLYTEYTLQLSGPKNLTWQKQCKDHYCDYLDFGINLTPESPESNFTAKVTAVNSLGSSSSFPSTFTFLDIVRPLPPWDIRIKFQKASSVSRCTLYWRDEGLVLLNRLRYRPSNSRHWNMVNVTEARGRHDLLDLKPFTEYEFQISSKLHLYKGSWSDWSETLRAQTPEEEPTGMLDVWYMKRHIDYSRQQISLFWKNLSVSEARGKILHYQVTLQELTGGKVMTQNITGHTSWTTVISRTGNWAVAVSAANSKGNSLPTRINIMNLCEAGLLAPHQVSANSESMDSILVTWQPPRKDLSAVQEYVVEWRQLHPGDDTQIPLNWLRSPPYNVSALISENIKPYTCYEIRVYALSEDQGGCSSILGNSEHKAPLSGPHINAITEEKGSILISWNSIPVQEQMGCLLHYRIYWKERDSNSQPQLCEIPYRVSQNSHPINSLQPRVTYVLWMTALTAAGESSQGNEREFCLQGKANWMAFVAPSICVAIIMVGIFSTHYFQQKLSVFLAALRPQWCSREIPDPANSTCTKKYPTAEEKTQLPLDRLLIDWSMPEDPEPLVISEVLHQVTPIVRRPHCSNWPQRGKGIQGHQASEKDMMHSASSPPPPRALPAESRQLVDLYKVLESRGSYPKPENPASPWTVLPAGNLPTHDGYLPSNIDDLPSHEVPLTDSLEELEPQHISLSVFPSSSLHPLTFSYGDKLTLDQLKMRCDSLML

T4: human IL-12RB2 with C-terminal HA tag, transiently expressed on HEK-293T cells (human, UniProt Q99665 24-862)
T4 construct: whole, on cells; also called human IL-12Rβ2
T4 sequence (looked up): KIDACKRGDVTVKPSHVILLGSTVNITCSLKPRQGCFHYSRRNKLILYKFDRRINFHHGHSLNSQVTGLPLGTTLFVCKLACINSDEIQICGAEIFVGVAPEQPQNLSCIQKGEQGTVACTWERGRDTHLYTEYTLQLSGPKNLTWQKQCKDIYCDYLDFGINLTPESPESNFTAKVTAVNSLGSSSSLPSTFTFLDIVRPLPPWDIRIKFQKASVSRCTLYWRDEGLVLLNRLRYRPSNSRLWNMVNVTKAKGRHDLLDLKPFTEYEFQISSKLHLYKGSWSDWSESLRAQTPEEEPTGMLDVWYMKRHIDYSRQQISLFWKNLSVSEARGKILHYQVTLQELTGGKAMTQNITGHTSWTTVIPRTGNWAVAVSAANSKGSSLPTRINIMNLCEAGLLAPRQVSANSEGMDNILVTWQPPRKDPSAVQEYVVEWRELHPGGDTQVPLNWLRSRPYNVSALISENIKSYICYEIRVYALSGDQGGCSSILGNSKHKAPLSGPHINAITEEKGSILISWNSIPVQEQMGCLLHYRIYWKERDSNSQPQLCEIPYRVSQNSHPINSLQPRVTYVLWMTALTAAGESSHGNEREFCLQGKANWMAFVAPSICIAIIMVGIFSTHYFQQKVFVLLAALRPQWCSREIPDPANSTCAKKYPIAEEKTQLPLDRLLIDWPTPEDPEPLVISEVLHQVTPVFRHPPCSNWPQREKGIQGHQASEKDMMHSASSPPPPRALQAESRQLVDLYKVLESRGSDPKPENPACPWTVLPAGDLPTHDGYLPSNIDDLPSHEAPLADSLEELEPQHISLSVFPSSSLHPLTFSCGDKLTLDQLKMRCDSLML


Columns and labels:
[1] = target: human IL-12 receptor (IL-12Rβ1 and IL-12Rβ2) on HEK-Blue IL-12 cells (human, UniProt P42701 24-662; Q99665 24-862); test: cell-based or functional assay
[2] = target: human IL-12Rβ1, Acro (BLI analyte) (human, UniProt P42701 24-545); test: BLI (Octet), antibody on AHC tip
[3] = target: T1, human IL-12Rβ2, Acro (BLI analyte); test: BLI (Octet), antibody on AHC tip
[4] = target: T2, human IL-12Rβ2-huFc-his (R&D system), …; test: ELISA, periplasmic extract
[5] = target: T3, cyno IL-12RB2 with C-terminal HA tag, …; test: FACS, periplasmic extract, HEK-293T
[6] = target: T4, human IL-12RB2 with C-terminal HA tag, …; test: FACS, periplasmic extract, HEK-293T

EC50 [1] | Max Absorbance [1] | Kd [2] | Kd [3] | OD450 nm [4] | FOB [5] | FOB [6] | Binder
7.7e-11 M (implied) | 0.6 | 7.26 nM | 0.768 nM |  |  |  | DGL586 (bispecific antibody, V domains shown, 258B1 x 19B2) V domain 1: QVQLVESGGGLVQAGGSLRLSCAASGRTFSSYVMGWFRQAPGQEREFVAAIMRNGIMTYYADSVKGRFTISRDNAKNTVYLQMNTLKPDDTAVYYCAAASRVGVSISQSSSYTSWGQGTQVTVEP V domain 2: QVQLVESGGGLVQPGGSLRLSCAASGFTFSNYAMSWVRQAPGKGLEWVSAINSDGTSTSYADSVKGQFTISRDNAKNTLYLQMNSLKPEDTAVYYCTKWEGDTDSDYKFKDYWGQGTQVTVEP
 |  |  |  | 0.237 | 0.99 fold |  | VHH219B2 (VHH) VHH: QVQLEESGGGLVQAGGSLRLSCAASGRTFSSYVVGWFRQAPGKEREFVGRISWSGARTYYADSVEGRFTISRDNAKNTVYLQMNSLKPEDTAVYYCAADLKWEVLLSEHYEYWGQGTQVTVSS
 |  |  |  | 2.86 |  | 1.43 fold | VHH356B2 (VHH) VHH: QLQLVESGGGLVQPGGSLRLSCAASGSIFSINAMGWYRQAPGKQRELVAAITSGGSTAYADSVKGRFTISRDNAKNTVYLQMNSLKPEDTAVYYCNADRDPITSWYVRGDYWGQGTQVTVSS
 |  |  |  | 0.174 | 3.78 fold | 2.25 fold | VHH190B2 (VHH) VHH: QVQLQESGPGLVKPSQTLSLTCTVSGGSITTNYYYWSWIRQPPGKGLEWMGAIAYSGSTYYSPSLKSRTSISRDTSKNQFTLQLSSVTPEDTAVYYCASGINFYSNYPTLNEYDYWGQGTQVTVSS
 |  |  |  | 2.99 | 2.31 fold | 1.64 fold | VHH85B2 (VHH) VHH: QVQLVESGGGLVQAGGSLRVSCAASGRIPSLNTMAWYRQAPGKQREFVAFITNGGTTNYVDSVEGRFSISRDNTKNAVDLQMNSLKPEDTGVYYCNVQISQYPYNYWGQGTQVTVSS
> 100 nM | 1.28 | 11.3 nM | 2.21 nM |  |  |  | DGL412 (bispecific antibody, human IgG1, kappa, 85801_05G01A x 13B2) heavy 1: not shown heavy 2: QVQLVESGGGLVRPGGSLRLSCAASGFTFSSNGMHWFRQAPGKGLEWVSSIGSGGTSIYYADSVKGRFTISRDNAKNTLYLQMNSLKSDDTAVYYCSKEVTGATRGQGTQVTVEPKSSDKTHTCPPCPAPEAAGAPSVFLFPPKPKDTLMISRTPEVTCVVVDVSHEDPEVKFNWYVDGVEVHNAKTKPREEQYNSTYRVVSVLTVLHQDWLNGKEYKCKVSNKALPAPIEKTISKAKGQPREPQVCTLPPSRDELTKNQVSLSCAVKGFYPSDIAVEWESNGQPENNYKTTPPVLDSDGSFFLVSKLTVDKSRWQQGNVFSCSVMHEALHNRFTQKSLSLSPG light: DIQMTQSPSSLSASVGDRVTITCRASQGIGNYLAWFQQRPGKAPKSLIYAASSLQSGVPSKFSGSGSGTDFTLTISSLQPADFAIYYCQQYNIYPYTFGPGTRLEIKRTVAAPSVFIFPPSDEQLKSGTASVVCLLNNFYPREAKVQWKVDNALQSGNSQESVTEQDSKDSTYSLSSTLTLSKADYEKHKVYACEVTHQGLSSPVTKSFNRGEC
2.7e-10 M (implied) | 1.24 | 15.9 nM | 0.321 nM |  |  |  | DGL426 (bispecific antibody, human IgG1, lambda) heavy 1: not shown heavy 2: QVQLVQSGAEVKKPGASVKVSCKASGYTFIGYYIHWVRQAPGQGLEWMGWINPHSGGTNYAQKFQGRVTMTRDTSISTAYMELSRLRSDDTAIYYCTKEANNWGYAFDIWGQGTMVTVSSASTKGPSVFPLAPSSKSTSGGTAALGCLVKDYFPEPVTVSWNSGALTSGVHTFPAVLQSSGLYSLSSVVTVPSSSLGTQTYICNVNHKPSNTKVDKKVEPKSCDKTHTCPPCPAPEAAGAPSVFLFPPKPKDTLMISRTPEVTCVVVDVSHEDPEVKFNWYVDGVEVHNAKTKPREEQYNSTYRVVSVLTVLHQDWLNGKEYKCKVSNKALPAPIEKTISKAKGQPREPQVCTLPPSRDELTKNQVSLSCAVKGFYPSDIAVEWESNGQPENNYKTTPPVLDSDGSFFLVSKLTVDKSRWQQGNVFSCSVMHEALHNRFTQKSLSLSPG light: not shown
 |  |  |  | 0.151 | 1.35 fold |  | VHH93B2 (VHH) VHH: QVQLVESGGGLVQPGGSLRLSCAASGFTFEPYDMSWFRQAPGKGPEWVSAIDKGGGAGATYYADSVKGRFTISRDNAKKTLYLQMKSLKPEDTAVYYCAITAGPYSDSTPRVAYRGEGTQVTVSS
4.7e-09 M (implied) | 0.59 | 10.6 nM | 8.29 nM |  |  |  | DGL551 (bispecific antibody, V domains shown, 195B1 x 185B2) V domain 1: QVQLVESGGGLVQAGGSLRLSCAASGRTFGTYAMGWFRQAPGKERDFVARISNSGAFTHYADSVKGRFTISRDNAKNTVYLHMNSLENGDTAAYYCVATRGTNSAYYTRSTMYEYWGQGTQVTVEP V domain 2: QVQLVESGGGLVQAGGSLRLSCAASGRTFSRYRMGWFRQAPGKEREFVAAITKSGATTYDADSVKGRFTISRDNAKNTLYLQMNSLKPEDTAVYYCAASYHSNWWPKNADEYAYWGQGTQVTVEP
 |  |  |  | 2.1 | 4.18 fold | 2.71 fold | VHH185B2 (VHH) VHH: QVQLVESGGGLVQAGGSLRLSCAASGRTFSRYRMGWFRQAPGKEREFVAAITKSGATTYDADSVKGRFTISRDNAKNTLYLQMNSLKPEDTAVYYCAASYHSNWWPKNADEYAYWGQGTQVTVSS
 |  |  |  | 0.19 | 3.84 fold | 3.19 fold | VHH94B2 (VHH) VHH: EVQLVESGGGLVQPGGSLRLSCAASGFTFSSYAMSWVRQAPGKGLEWVSAINSGGDSTSYADSVEGRFTISRDNAKNTLYLQMNSLKPDDTAVYYCAKWSDCSEYGCYDQTTTEGTQVTVSS
 |  |  |  | 0.308 |  | 2.05 fold | VHH230B2 (VHH) VHH: QVQLVESGGGLVQAGGSLRLSCAASGRTFSSYAMGWFRQAPGKEREFVSAISWSGLSTYYVESVQGRFTISRDNAKNTVYLQMNSLKPEDTAVYYCAASRIYTNYVARSYEYDDWGQGTQVTVSS
